Patent publication US20240117334A1, “FACTOR B PROTEASES” (Vertex Pharmaceuticals Incorporated, priority 2021, published 2024)
Where two headings read alike, the source gives them in different places.

Assays:
Human Factor B = Human Factor B (Homo sapiens, UniProt P00751); assay: Human Factor B cleavage EC50 in 80% human plasma (Table 10A); type: biochemical
Experimental: Cleavage of Factor B by various engineered proteases was evaluated. Engineered chymase-, MTSP-1-, and uPA-based proteases were tested. All references in this Example, including Tables 10A, 10B, 11A, and 11B, to engineered proteases are depicted in chymotrypsin numbering. The chymotrypsin numbering key for the modified protease domains of engineered proteases are found in Tables 2, 4, and 6 for uPA, MTSP-1, and chymase, respectively. These experiments were also performed to evaluate the stability of non-naturally occurring chymases in various media, including cynomolgus monkey vitreous humor, human plasma, and phosphate buffered saline (PBS). Briefly, Factor B was diluted into an assay buffer and incubated at 37° C. with naturally occurring (wild type) and non-naturally occurring (engineered) proteases in vitreous humor, plasma, or PBS, and the reactions were quenched with HCl at various time points. The time points tested for chymase include T=0 which used 6 hours pre-incubation, T=2 hours which used 4 hours pre-incubation, T=4 hours which used 2 hours pre-incubation, and T=6 hours which used 0 hours pre-incubation. Assaying of the sample was performed with ELISA, or alpha screen for human C3 cleavage, using standard protocols.
A summary of the results is presented in Tables 10A-10B below, showing the various tested proteases, the concentration of the protease used in nM and the EC50 of human Factor B cleavage. Table 10 presents human Factor B cleavage by various non-naturally occurring chymase-based engineered proteases, tested in 80% human plasma, compared against a chymase comprising the mutation string […]. Blank cells indicate that a test was not performed for a particular protease mutation string.

[1] = Half-life in 50% human plasma of chymase-based engineered proteases; type: in vitro ADME; details: EGVD′AE substrate
Experimental: Table 10B presents human Factor B cleavage by various engineered chymase-, MTSP-1-, or uPA-based proteases, tested in mouse or human plasma. For ELISA analysis of Factor B cleavage, briefly, anti-Ba was used, and Bb was detected with anti-Bb. A dynamic range of 25-1600 pM was used. Half-life in 50% human plasma was also calculated for various chymase-based engineered proteases.

serpins = assay: Serpin inhibition tests of chymase-based engineered proteases; type: biochemical; details: Plasma Inhibitor: plasma antichymotrypsin (plasma ACT)
Experimental: Inhibition tests were carried out using chymase-based engineered proteases. Various serpins, which are capable of inhibiting protease activity, were used to test whether these could be used for adequate inhibition of the tested chymase-based engineered proteases, to enable selection of an engineered protease resistant to inhibition in plasma. All references in this Example to engineered proteases are depicted in chymotrypsin numbering. The chymotrypsin numbering key for the modified protease domains of engineered proteases are found in Tables 2, 4, and 6 for uPA, MTSP-1, and chymase, respectively.

[2] = chymase-based engineered proteases, no plasma stated, read-out: fB Cleavage EC50
[3] = read-out: fB Cleavage, 80% plasma EC50, chymase-based, 80% human plasma

Human Factor B, sequence (P00751 26-764): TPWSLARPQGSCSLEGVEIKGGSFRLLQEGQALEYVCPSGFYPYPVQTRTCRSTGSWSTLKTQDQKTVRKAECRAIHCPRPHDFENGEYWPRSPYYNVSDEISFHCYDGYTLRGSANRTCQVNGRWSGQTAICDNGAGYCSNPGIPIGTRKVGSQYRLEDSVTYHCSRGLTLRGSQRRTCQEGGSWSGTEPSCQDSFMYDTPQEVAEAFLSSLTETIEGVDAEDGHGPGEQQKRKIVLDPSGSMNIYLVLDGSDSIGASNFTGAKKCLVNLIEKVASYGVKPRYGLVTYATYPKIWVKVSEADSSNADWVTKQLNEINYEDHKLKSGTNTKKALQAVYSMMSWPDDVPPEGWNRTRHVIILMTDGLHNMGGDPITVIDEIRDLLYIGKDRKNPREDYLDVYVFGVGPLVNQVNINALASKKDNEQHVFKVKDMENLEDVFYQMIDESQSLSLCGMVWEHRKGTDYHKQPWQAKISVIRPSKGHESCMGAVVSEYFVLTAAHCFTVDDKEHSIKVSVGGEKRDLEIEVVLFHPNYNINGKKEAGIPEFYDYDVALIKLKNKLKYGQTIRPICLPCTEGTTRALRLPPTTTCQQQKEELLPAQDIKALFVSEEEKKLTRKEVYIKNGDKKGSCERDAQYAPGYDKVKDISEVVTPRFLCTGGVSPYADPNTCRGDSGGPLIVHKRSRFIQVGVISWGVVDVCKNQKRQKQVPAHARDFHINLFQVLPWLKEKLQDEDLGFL

Molecule | EC50 (Human Factor B; [2]) | other results
C22S/F173L/Y215H/A226R (protein, listed as Homo sapiens) IIGGTESKPHSRPYMAYLEIVTSNGPSKFCGGFLIRRNFVLTAAHCAGRSITVTLGAHNITEEEDTWQKLEVIKQFRHPKYNTSTLHHDIMLLKLKEKASLTLAVGTLPFPSQFNFVPPGRMCRVAGWGRTGVLKPGSDTLQEVKLRLMDPQACSHLRDFDHNLQLCVGNPRKTKSAFKGDSGGPLLCAGVAQGIVSHGRSDAKPPRVFTRISHYRPWINQILQAN | 5.99 µM | 
C22S/V138A/G145D/S189T/A190S/A226R (protein, listed as Homo sapiens) IIGGTESKPHSRPYMAYLEIVTSNGPSKFCGGFLIRRNFVLTAAHCAGRSITVTLGAHNITEEEDTWQKLEVIKQFRHPKYNTSTLHHDIMLLKLKEKASLTLAVGTLPFPSQFNFVPPGRMCRAAGWGRTDVLKPGSDTLQEVKLRLMDPQACSHFRDFDHNLQLCVGNPRKTKTSFKGDSGGPLLCAGVAQGIVSYGRSDAKPPRVFTRISHYRPWINQILQAN | 3.81 µM | 
C22S/V138A/S189T/A226R/F228M (protein, listed as Homo sapiens) IIGGTESKPHSRPYMAYLEIVTSNGPSKFCGGFLIRRNFVLTAAHCAGRSITVTLGAHNITEEEDTWQKLEVIKQFRHPKYNTSTLHHDIMLLKLKEKASLTLAVGTLPFPSQFNFVPPGRMCRAAGWGRTGVLKPGSDTLQEVKLRLMDPQACSHFRDFDHNLQLCVGNPRKTKTAFKGDSGGPLLCAGVAQGIVSYGRSDAKPPRVMTRISHYRPWINQILQAN | 1.77 µM | 
C22S/S218I/A226R (protein, listed as Homo sapiens) IIGGTESKPHSRPYMAYLEIVTSNGPSKFCGGFLIRRNFVLTAAHCAGRSITVTLGAHNITEEEDTWQKLEVIKQFRHPKYNTSTLHHDIMLLKLKEKASLTLAVGTLPFPSQFNFVPPGRMCRVAGWGRTGVLKPGSDTLQEVKLRLMDPQACSHFRDFDHNLQLCVGNPRKTKSAFKGDSGGPLLCAGVAQGIVSYGRIDAKPPRVFTRISHYRPWINQILQAN | 0.83 µM | t1/2 in 50% human plasma (min) (EGVD′AE)(SEQ ID NO: 13) [1]: 7.8 min
C22S/D175N/A226R (protein, listed as Homo sapiens) IIGGTESKPHSRPYMAYLEIVTSNGPSKFCGGFLIRRNFVLTAAHCAGRSITVTLGAHNITEEEDTWQKLEVIKQFRHPKYNTSTLHHDIMLLKLKEKASLTLAVGTLPFPSQFNFVPPGRMCRVAGWGRTGVLKPGSDTLQEVKLRLMDPQACSHFRNFDHNLQLCVGNPRKTKSAFKGDSGGPLLCAGVAQGIVSYGRSDAKPPRVFTRISHYRPWINQILQAN | 0.564 µM | t1/2 in 50% human plasma (min) (EGVD′AE)(SEQ ID NO: 13) [1]: 6.2 min; EC50 (Human Factor B; [3]): 7.77 µM
C22S/V138A/S189T/A226R (protein, listed as Homo sapiens) IIGGTESKPHSRPYMAYLEIVTSNGPSKFCGGFLIRRNFVLTAAHCAGRSITVTLGAHNITEEEDTWQKLEVIKQFRHPKYNTSTLHHDIMLLKLKEKASLTLAVGTLPFPSQFNFVPPGRMCRAAGWGRTGVLKPGSDTLQEVKLRLMDPQACSHFRDFDHNLQLCVGNPRKTKTAFKGDSGGPLLCAGVAQGIVSYGRSDAKPPRVFTRISHYRPWINQILQAN | 4.42 µM | 
C22S/A220S/A226R (protein, listed as Homo sapiens) IIGGTESKPHSRPYMAYLEIVTSNGPSKFCGGFLIRRNFVLTAAHCAGRSITVTLGAHNITEEEDTWQKLEVIKQFRHPKYNTSTLHHDIMLLKLKEKASLTLAVGTLPFPSQFNFVPPGRMCRVAGWGRTGVLKPGSDTLQEVKLRLMDPQACSHFRDFDHNLQLCVGNPRKTKSAFKGDSGGPLLCAGVAQGIVSYGRSDSKPPRVFTRISHYRPWINQILQAN | 5.56 µM | 
C22S/A226R/F228A (protein, listed as Homo sapiens) IIGGTESKPHSRPYMAYLEIVTSNGPSKFCGGFLIRRNFVLTAAHCAGRSITVTLGAHNITEEEDTWQKLEVIKQFRHPKYNTSTLHHDIMLLKLKEKASLTLAVGTLPFPSQFNFVPPGRMCRVAGWGRTGVLKPGSDTLQEVKLRLMDPQACSHFRDFDHNLQLCVGNPRKTKSAFKGDSGGPLLCAGVAQGIVSYGRSDAKPPRVATRISHYRPWINQILQAN | 5.07 µM | 
C22S/V138A/A226R (protein, listed as Homo sapiens) IIGGTESKPHSRPYMAYLEIVTSNGPSKFCGGFLIRRNFVLTAAHCAGRSITVTLGAHNITEEEDTWQKLEVIKQFRHPKYNTSTLHHDIMLLKLKEKASLTLAVGTLPFPSQFNFVPPGRMCRAAGWGRTGVLKPGSDTLQEVKLRLMDPQACSHFRDFDHNLQLCVGNPRKTKSAFKGDSGGPLLCAGVAQGIVSYGRSDAKPPRVFTRISHYRPWINQILQAN | 2.94 µM | 
C22S/F173Y/A226R (protein, listed as Homo sapiens) IIGGTESKPHSRPYMAYLEIVTSNGPSKFCGGFLIRRNFVLTAAHCAGRSITVTLGAHNITEEEDTWQKLEVIKQFRHPKYNTSTLHHDIMLLKLKEKASLTLAVGTLPFPSQFNFVPPGRMCRVAGWGRTGVLKPGSDTLQEVKLRLMDPQACSHYRDFDHNLQLCVGNPRKTKSAFKGDSGGPLLCAGVAQGIVSYGRSDAKPPRVFTRISHYRPWINQILQAN | 0.65 µM | t1/2 in 50% human plasma (min) (EGVD′AE)(SEQ ID NO: 13) [1]: 5.9 min; EC50 (Human Factor B; [3]): 21 µM
C22S/A190S/A226R (protein, listed as Homo sapiens) IIGGTESKPHSRPYMAYLEIVTSNGPSKFCGGFLIRRNFVLTAAHCAGRSITVTLGAHNITEEEDTWQKLEVIKQFRHPKYNTSTLHHDIMLLKLKEKASLTLAVGTLPFPSQFNFVPPGRMCRVAGWGRTGVLKPGSDTLQEVKLRLMDPQACSHFRDFDHNLQLCVGNPRKTKSSFKGDSGGPLLCAGVAQGIVSYGRSDAKPPRVFTRISHYRPWINQILQAN |  | t1/2 in 50% human plasma (min) (EGVD′AE)(SEQ ID NO: 13) [1]: 4.2 min; kapp (serpins): 1599 M⁻¹ s⁻¹

Continued, in another order:

EC50 (Human Factor B; [2]) | Molecule | other results
4.16 µM | C22S/V138L/S189T/A190G/A226R (protein, listed as Homo sapiens) IIGGTESKPHSRPYMAYLEIVTSNGPSKFCGGFLIRRNFVLTAAHCAGRSITVTLGAHNITEEEDTWQKLEVIKQFRHPKYNTSTLHHDIMLLKLKEKASLTLAVGTLPFPSQFNFVPPGRMCRLAGWGRTGVLKPGSDTLQEVKLRLMDPQACSHFRDFDHNLQLCVGNPRKTKTGFKGDSGGPLLCAGVAQGIVSYGRSDAKPPRVFTRISHYRPWINQILQAN | 
6.71 µM | C22S/V138T/A190S/V213A/A226R (protein, listed as Homo sapiens) IIGGTESKPHSRPYMAYLEIVTSNGPSKFCGGFLIRRNFVLTAAHCAGRSITVTLGAHNITEEEDTWQKLEVIKQFRHPKYNTSTLHHDIMLLKLKEKASLTLAVGTLPFPSQFNFVPPGRMCRTAGWGRTGVLKPGSDTLQEVKLRLMDPQACSHFRDFDHNLQLCVGNPRKTKSSFKGDSGGPLLCAGVAQGIASYGRSDAKPPRVFTRISHYRPWINQILQAN | 
7.13 µM | C22S/V138I/L160V/S189T/A226R (protein, listed as Homo sapiens) IIGGTESKPHSRPYMAYLEIVTSNGPSKFCGGFLIRRNFVLTAAHCAGRSITVTLGAHNITEEEDTWQKLEVIKQFRHPKYNTSTLHHDIMLLKLKEKASLTLAVGTLPFPSQFNFVPPGRMCRIAGWGRTGVLKPGSDTLQEVKVRLMDPQACSHFRDFDHNLQLCVGNPRKTKTAFKGDSGGPLLCAGVAQGIVSYGRSDAKPPRVFTRISHYRPWINQILQAN | 
3.48 µM | C22S/V138L/A226R (protein, listed as Homo sapiens) IIGGTESKPHSRPYMAYLEIVTSNGPSKFCGGFLIRRNFVLTAAHCAGRSITVTLGAHNITEEEDTWQKLEVIKQFRHPKYNTSTLHHDIMLLKLKEKASLTLAVGTLPFPSQFNFVPPGRMCRLAGWGRTGVLKPGSDTLQEVKLRLMDPQACSHFRDFDHNLQLCVGNPRKTKSAFKGDSGGPLLCAGVAQGIVSYGRSDAKPPRVFTRISHYRPWINQILQAN | 
2.98 µM | C22S/V138S/S189T/A226R/F228M (protein, listed as Homo sapiens) IIGGTESKPHSRPYMAYLEIVTSNGPSKFCGGFLIRRNFVLTAAHCAGRSITVTLGAHNITEEEDTWQKLEVIKQFRHPKYNTSTLHHDIMLLKLKEKASLTLAVGTLPFPSQFNFVPPGRMCRSAGWGRTGVLKPGSDTLQEVKLRLMDPQACSHFRDFDHNLQLCVGNPRKTKTAFKGDSGGPLLCAGVAQGIVSYGRSDAKPPRVMTRISHYRPWINQILQAN | 
